According to PMC11565396 (Journal of Lipid Research, 2024):

Target: the molecule itself
Assay: SEC

B1: 6xHis-VP40 (recombinant full-length EBOV VP40, dimer) (natural protein)
chain: MRRVILPTAPPEYMEAIYPVRSNSTIARGGNSNTGFLTPESVNGDTPSNPLRPIADDTIDHASHTPGSVSSAFILEAMVNVISGPKVLMKQIPIWLPLGVADQKTYSFDSTTAAIMLASYTITHFGKATNPLVRVNRLGPGIPDHPLRLLRIGNQAFLQEFVLPPVQLPQYFTFDLTALKLITQPLPAATWTDDTPTGSNGALRPGISFHPKLRPILLPNKSGKKGNSADLTSPEKIQAIMTSLQDFKIVPIDPTKNIMGIEVPETLVHKLTGKKVTSKNGQPIIPVLLPKYIGLDPVAPGDLTMVITQDCDTCHSPASLPAVIEK
B1: binds.
